Consider two molecules from US11370837 (dated 2022).

Experiment [1] addresses T1, human TIGIT on CHO cells (human, UniProt Q495A1).
T1 chain: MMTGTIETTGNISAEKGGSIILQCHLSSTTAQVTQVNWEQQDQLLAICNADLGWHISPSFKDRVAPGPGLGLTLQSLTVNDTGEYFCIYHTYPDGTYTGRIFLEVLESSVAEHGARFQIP
Put plainly: competition, CD155 blocking FACS.

In experiment [2] the target is T1, human TIGIT on CHO cells. As to the kind of experiment: competition, CD155 blocking FACS.
In experiment [3] the target is T1, human TIGIT on CHO cells. Put plainly: FACS. A general note: A flow cytometer gives signals particle by particle.
In experiment [4] the target is T2, mouse TIGIT-his (mouse, UniProt P86176).
T2 chain: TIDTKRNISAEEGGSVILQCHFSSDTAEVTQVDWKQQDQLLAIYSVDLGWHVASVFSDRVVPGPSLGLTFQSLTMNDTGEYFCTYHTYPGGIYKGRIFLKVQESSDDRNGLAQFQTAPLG
Put plainly: BLI. On the technique in general: BLI is a label-free optical method that tracks binding on a fibre tip over time.

The target in experiment [5] is T1, human TIGIT on CHO cells. As to the kind of experiment: FACS, CHO-expressed antibody.
In experiment [6] the target is monkey TIGIT-his (monkey). Put plainly: BLI.
Experiment [7] addresses T3, human TIGIT-his (human, UniProt Q495A1).
T3 chain: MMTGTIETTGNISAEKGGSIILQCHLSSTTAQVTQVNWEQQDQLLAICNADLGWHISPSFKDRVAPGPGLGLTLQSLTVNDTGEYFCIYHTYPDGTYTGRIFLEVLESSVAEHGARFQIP
Put plainly: BLI.

The target of experiment [8] is T1, human TIGIT on CHO cells. Put plainly: competition.

Sequence of monkey TIGIT-his (monkey) (Q495A1 other isoform, or with tags, fused parts or gaps): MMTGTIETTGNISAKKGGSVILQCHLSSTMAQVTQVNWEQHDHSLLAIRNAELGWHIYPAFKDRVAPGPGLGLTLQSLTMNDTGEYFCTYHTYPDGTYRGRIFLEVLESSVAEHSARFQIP

B1: ADI-30336 (antibody, V domains shown)
VH: QLQLQESGPGLVKPSETLSLTCTVSGGSISSSRYYWGWIRQPPGKGLEWIGSIYYSGSTYYNPSLKSRVTISVDTSKNQFSLKLSSVTAADTAVYYCARDGLYHTPEYFQHWGQGTLVTVSS
VL: EIVLTQSPATLSLSPGERATLSCRASQSVSSYLAWYQQKPGQAPRLLIYDASNRATGIPARFSGSGSGTDFTLTISSLEPEDFAVYYCQQRFAHPYTFGGGTKVEIK
As to B1, the IC50 in experiment [1] came out at 0.122 nM; in experiment [2], 0.409 nM. Besides, the EC50 in experiment [3] came to 0.629 nM; in experiment [5], 0.13 nM. Further, the binding result in experiment [4] is “no binding”. Besides, the Kd in experiment [6] turned out to be 0.556 nM; in experiment [7], 1.46 nM.

B2: ADI-30272 (antibody, V domains shown)
VH: QVQLVQSGAEVKKPGASVKVSCKASGYTFTEYYMHWVRQAPGQGLEWMGIISPSAGSTSYAQKFQGRVTMTRDTSTSTVYMELSSLRSEDTAVYYCARDHDIAAAGRLADYWGQGTLVTVSS
VL: DIQMTQSPSSVSASVGDRVTITCRASQGISSWLAWYQQKPGKAPKLLISAASSLQSGVPSRFSGSGSGTDFTLTISSLQPEDFATYYCQQAVILPITFGGGTKVEIK
For B2, the EC50 in experiment [3] is 0.61 nM. Further, the IC50 in experiment [8] worked out at 0.404 nM.

For orientation: IC50 means the concentration needed to halve the response being measured. Broadly, the EC50 is the concentration giving half of the maximal effect. Broadly, the Kd is the free concentration of one partner at which half of the binding sites on the other are occupied at equilibrium, for simple one-to-one binding.
